Values joined by “and” are separate entries in the source; they are usually repeats but may differ in a detail not shown here. Identical values can stand only once.
Molecular target: the i20S and the s20S (human)
Test: mass photometry

Substance: recombinantly expressed and purified human PA200 (from UniProt Q14997 1-1843) (natural protein)
- Kd, first binding event: 20 nM and 30 nM
